Results as given in US20210087268A1 (YUHAN, published 2021).
Each block holds one binder with its values, some of them ahead of it.

Assays:
[1] = target: T1, CD112 (R&D Systems) (UniProt Q92692 32-360, limits assumed); experiment: ELISA, antigen coated at 100 ng/well, 30 ng antibody per well (one amount), absorbance 450 nm
T1 sequence (looked up): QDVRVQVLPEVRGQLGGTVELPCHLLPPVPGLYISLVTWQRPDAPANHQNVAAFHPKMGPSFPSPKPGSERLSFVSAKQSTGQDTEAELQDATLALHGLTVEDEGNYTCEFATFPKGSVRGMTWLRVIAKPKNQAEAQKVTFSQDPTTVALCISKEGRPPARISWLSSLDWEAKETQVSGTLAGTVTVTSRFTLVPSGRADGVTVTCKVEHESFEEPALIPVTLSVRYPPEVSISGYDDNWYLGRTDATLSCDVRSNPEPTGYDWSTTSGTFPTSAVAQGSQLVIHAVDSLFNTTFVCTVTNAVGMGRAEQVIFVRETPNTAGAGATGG
Experimental: (§1) The binding of the anti-TIGIT antibodies to TIGIT superfamilies such as CD96 (Sinobiological), CD155 (Sinobiological), CD112 (R&D Systems), CD113 (R&D Systems) and CD226 (R&D Systems) antigens was identified by ELISA in order to determine the TIGIT specificity of the anti-TIGIT antibodies screened by phage display screening. Six types of antigens including TIGIT were coated at 100 ng/well on a 96-well plate, treated with 30 ng of each screened antibody and incubated at room temperature for 1 hour. After washing three times with TBST, 30 μL of TBST (5% BSA) diluted at 1:3,000 with an anti-human Fab-HRP secondary antibody (Jackson) was added to each well and incubated at room temperature for 1 hour. After washing three times with TBST, 30 μL of the resulting TMB solution was added to each well. After ceasing the reaction with 1N H₂SO₄, color development was determined at an absorbance of 450 nm. The binding of the selected antibodies to the six antigens was identified. As a result, it can be seen that all the antibodies specifically bound only to the TIGIT antigen (FIG. 2).

[2] = target: T2, CD96 (Sinobiological) (UniProt P40200-2 22-503, limits assumed); experiment: as above
T2 sequence (looked up): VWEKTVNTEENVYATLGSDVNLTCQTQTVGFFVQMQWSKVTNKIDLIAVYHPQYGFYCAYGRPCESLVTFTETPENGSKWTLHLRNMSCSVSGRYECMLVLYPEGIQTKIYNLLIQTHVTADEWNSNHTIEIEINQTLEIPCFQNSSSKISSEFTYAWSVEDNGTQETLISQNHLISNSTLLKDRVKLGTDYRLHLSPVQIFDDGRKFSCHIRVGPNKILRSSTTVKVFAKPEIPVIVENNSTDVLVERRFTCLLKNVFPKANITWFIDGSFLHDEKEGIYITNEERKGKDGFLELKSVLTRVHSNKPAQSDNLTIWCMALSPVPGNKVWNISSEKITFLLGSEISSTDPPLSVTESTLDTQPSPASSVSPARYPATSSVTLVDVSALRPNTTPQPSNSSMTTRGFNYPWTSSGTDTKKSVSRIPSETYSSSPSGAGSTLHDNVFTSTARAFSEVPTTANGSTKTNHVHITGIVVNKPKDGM
Experimental: as §1

[3] = target: T3, CD155 (Sinobiological), ELISA antigen (UniProt P15151 21-343); experiment: as above
T3 sequence (looked up): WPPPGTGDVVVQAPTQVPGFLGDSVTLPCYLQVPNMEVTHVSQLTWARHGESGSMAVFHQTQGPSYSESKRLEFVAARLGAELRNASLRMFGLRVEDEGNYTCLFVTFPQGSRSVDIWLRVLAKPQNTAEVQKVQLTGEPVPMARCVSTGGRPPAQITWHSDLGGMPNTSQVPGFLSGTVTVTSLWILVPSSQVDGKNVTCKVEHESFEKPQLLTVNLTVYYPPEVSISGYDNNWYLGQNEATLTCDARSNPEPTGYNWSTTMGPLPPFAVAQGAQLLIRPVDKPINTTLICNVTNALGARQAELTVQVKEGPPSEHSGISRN
Experimental: as §1

[4] = target: CD113 (R&D Systems) (UniProt Q9NQS3 58-404, limits assumed); experiment: as above
Experimental: as §1

[5] = target: T4, CD226 (R&D Systems) (UniProt Q15762 19-247, limits assumed); experiment: as above
T4 sequence (looked up): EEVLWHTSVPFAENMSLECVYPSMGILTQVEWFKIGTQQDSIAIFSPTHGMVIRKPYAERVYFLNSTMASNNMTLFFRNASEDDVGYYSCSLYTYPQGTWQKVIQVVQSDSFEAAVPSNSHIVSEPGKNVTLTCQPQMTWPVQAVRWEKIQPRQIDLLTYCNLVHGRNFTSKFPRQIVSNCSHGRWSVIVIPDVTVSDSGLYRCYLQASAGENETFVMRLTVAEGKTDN
Experimental: as §1

[6] = target: T5, mouse TIGIT (R & D Systems), ELISA antigen (mouse, UniProt P86176 29-148, limits assumed); experiment: ELISA, antigen coated on the plate, 30 ng antibody per well (one amount), absorbance 450 nm
T5 sequence (looked up): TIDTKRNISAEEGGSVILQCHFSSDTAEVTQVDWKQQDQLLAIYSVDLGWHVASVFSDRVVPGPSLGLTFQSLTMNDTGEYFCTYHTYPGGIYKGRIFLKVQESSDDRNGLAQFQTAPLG
Text: In order to determine the species cross-reactivity of the anti-TIGIT antibodies screened by phage display screening, whether or not the anti-TIGIT antibodies bound to human TIGIT (R&D Systems), mouse TIGIT (R & D Systems) and rhesus TIGIT antigens was identified by ELISA. The rhesus TIGIT antigens used herein were expressed and purified in the form of Fc-fusion by gene synthesis with reference to the Rhesus TIGIT gene sequence (NCBI accession No. XP_014985303.1). Each of three types of the TIGIT antigens diluted at a concentration of […] in PBS was added at 30 μl/well to a 96-well plate and incubated overnight at 4° C. to induce coating. Then, 30 ng of the screened antibody was bound to the TIGIT antigen, and 30 μL of a TBST (5% BSA) solution diluted at 1:3,000 was added to each well and incubated at room temperature for 1 hour. After washing three times with TBST, 30 μL of the TMB solution was added to each well to induce color development. After ceasing the reaction with 1N H₂SO₄, color development was determined at an absorbance of 450 nm. The species cross-reactivity of the screened antibodies bound to […] of antigens was identified (FIG. 1).

Chain of CD113 (R&D Systems) (Q9NQS3 58-404 limits assumed): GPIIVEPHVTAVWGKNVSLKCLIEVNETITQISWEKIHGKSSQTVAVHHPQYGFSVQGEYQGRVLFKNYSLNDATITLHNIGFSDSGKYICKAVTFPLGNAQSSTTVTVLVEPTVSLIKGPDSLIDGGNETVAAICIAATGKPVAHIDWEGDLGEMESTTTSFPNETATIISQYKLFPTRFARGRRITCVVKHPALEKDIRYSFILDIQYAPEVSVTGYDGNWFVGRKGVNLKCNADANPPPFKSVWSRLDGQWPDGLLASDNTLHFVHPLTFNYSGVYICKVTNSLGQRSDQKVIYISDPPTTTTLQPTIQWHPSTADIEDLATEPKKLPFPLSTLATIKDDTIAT

binding result [1]: no binding (tested: 30 ng per well)
binding result [2]: no binding (tested: 30 ng per well)
binding result [3]: no binding (tested: 30 ng per well)
binding result [4]: no binding (tested: 30 ng per well)
binding result [5]: no binding (tested: 30 ng per well)
binding result [6]: binds
B1: F04 (IgG1 form) (antibody, V domains shown)
VH: EVQLLESGGGLVQPGGSLRLSCAASGFTFSSYYMSWVRQAPGKGLEWVSSIGSYYTYYADSVKGRFTISRDNSKNTLYLQMNSLRAEDTAVYYCARSSYSGGNGYYYYAYAFDYWGQGTLVTVSS
VL: EIVLTQSPGTLSLSPGERATLSCRASQSVSSSYLAWYQQKPGQAPRLLIYGASSRATGIPDRFSGSGSGTDFTLTISRLEPEDFAVYYCQQGYHRYATFGQGTKVEIK

binding result [1]: no binding (tested: 30 ng per well)
binding result [2]: no binding (tested: 30 ng per well)
binding result [3]: no binding (tested: 30 ng per well)
binding result [4]: no binding (tested: 30 ng per well)
binding result [5]: no binding (tested: 30 ng per well)
binding result [6]: binds
B2: S64 (IgG1 form) (antibody, V domains shown)
VH: EVQLLESGGGLVQPGGSLRLSCAASGFTFSNYAMSWVRQAPGKGLEWVSAIYPGGGSIYYADSVKGRFTISRDNSKNTLYLQMNSLRAEDTAVYYCAKAIRTCSLSHCYYYYGMDVWGQGTLVTVSS
VL: QSVLTQPPSASGTPGQRVTISCSCSSSNIGNNAVSWYQQLPGTAPKLLIYYDSNRPSGVPDRFSGSKSGTSASLAISGLRSEDEADYYCGSWDYSLSAYVFGGGTKLTVLG
